Test results reported in the supplement of paper PMC7125110.
± gives the standard error. Variants at the floor of the assay were thinned out.

B1: glmS ribozyme (parent)
chain: AUAAAAGCGCCAGAACUACAGAAAUGUAGUUGACGAGGAGGAGGUUUAUCGAAUUUUCGGCGGAUGCCUCCAAA

Key:
Conditions in all cases: with glucosamine-6-phosphate
[1] = variants of: B1; test: self-cleavage kobs at 640 uM GlcN6P; higher = faster cleavage; RNA array
In short: (§1)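 Sequenced MiSeq chips were the platform: E. coli RNA polymerase transcribed barcoded ribozyme variants on them in situ, and a hybridised Cy3 probe tracked these at 37 °C. After glucosamine-6-phosphate (40 μM to 10 mM) in HEPES/KCl/Mg(OAc)2 buffer was flowed in, tiles were imaged over ~14 h. Signals normalised to baseline and to non-cleaving reference variants were reduced to per-tile medians and fit to one- or two-exponential decays to obtain kobs. kcat and KM were derived through weighted Michaelis–Menten fits across concentrations.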

[2] = variants of: B1; test: self-cleavage kobs at 2500 uM GlcN6P; higher = faster cleavage; RNA array
In short: as §1

[3] = variants of: B1; test: self-cleavage kobs at 10000 uM GlcN6P; higher = faster cleavage; RNA array
In short: as §1

Variant | self-cleavage kobs at 640 uM GlcN6P [1] [s⁻¹] | self-cleavage kobs at 2500 uM GlcN6P [2] [s⁻¹] | self-cleavage kobs at 10000 uM GlcN6P [3] [s⁻¹]
C8U A15U U46G G51A G66A | < 1e-05 | – | –
C10A U46C U54G | < 1e-05 | – | –
G9U C34A G59U G63A | < 1e-05 | < 1e-05 | –
G9A G37C U54G G60U C68U | < 1e-05 | < 1e-05 | –
G9C G40A G66U C68G | < 1e-05 | – | –
G7U A36C A42C G66C | < 1e-05 | – | –
C11A A33U A52G C68G | 0.000157 ± 6.4e-05 | – | –
G9A C50U | < 1e-05 | < 1e-05 | < 1e-05
C11A G13U U31A G32A U47G | < 1e-05 | – | –
G9U G29U G44A | < 1e-05 | < 1e-05 | –
C11A U55G C61G G62C | < 1e-05 | – | –
C8G A15G A33C | < 1e-05 | < 1e-05 | –
G9U C10G C11A | < 1e-05 | – | –
G9A G41A A53U | < 1e-05 | < 1e-05 | –
C11G C58A C68A | 0.000165 ± 6.6e-05 | – | –
C8G G13C G59A U69G | < 1e-05 | – | –
C10U A12U G29C G41U C70U | < 1e-05 | < 1e-05 | –
C10A G13C C61G G66A C70A | 0.000102 ± 4.5e-05 | – | –
C8U C16A G62U | < 1e-05 | < 1e-05 | –
C11U G32C A36G | < 1e-05 | < 1e-05 | < 1e-05
C8U C58U G62C A64U | < 1e-05 | < 1e-05 | –
C11A G38U U47A | < 1e-05 | – | –

Variant | self-cleavage kobs at 640 uM GlcN6P [1] [s⁻¹] | self-cleavage kobs at 2500 uM GlcN6P [2] [s⁻¹] | self-cleavage kobs at 10000 uM GlcN6P [3] [s⁻¹]
C8G C10U A14G C34A U69G | 0.000745 ± 0.00024 | < 1e-05 | –
C11G G41U C50U | < 1e-05 | < 1e-05 | –
G7U U30A G51A | < 1e-05 | – | –
G9U G41A A42U | < 1e-05 | < 1e-05 | –
G9U A15U A42G G63C U69G | < 1e-05 | < 1e-05 | –
G7U G40U C50G | < 1e-05 | < 1e-05 | –
C11U A15C A33G G44U U49C A64C C70U | < 1e-05 | < 1e-05 | –
C11U G37A U57G G63A | < 1e-05 | – | –
G7U G9A C58A C61A C67U | < 1e-05 | < 1e-05 | –
C8U G43A C58G | < 1e-05 | < 1e-05 | –
C11G C16G G38A G63A | < 1e-05 | – | –
C8A A15G G44A C61U C71A | < 1e-05 | < 1e-05 | –
C10U G13A G29A G41A | < 1e-05 | – | –
C10G U47C U49C U55G | < 1e-05 | – | –
C11G C50U U57A G60A C67U | 0.000609 ± 0.00017 | – | –
C8U G9A A15U A39G | < 1e-05 | < 1e-05 | –
G9U U47G | < 1e-05 | – | < 1e-05
G7U A15U U47G | < 1e-05 | – | –
C11U G13A A48G U56C | < 1e-05 | – | –
C8U C58A U65C | < 1e-05 | < 1e-05 | –
C8U A33C G40C G62A C70U | < 1e-05 | – | –
C11U G41U U45C | < 1e-05 | – | –

Variant | self-cleavage kobs at 640 uM GlcN6P [1] [s⁻¹] | self-cleavage kobs at 2500 uM GlcN6P [2] [s⁻¹] | self-cleavage kobs at 10000 uM GlcN6P [3] [s⁻¹]
C11U C50U G60C | < 1e-05 | – | –
C11A U30G U65C | < 1e-05 | < 1e-05 | –
C10G A14U | < 1e-05 | – | < 1e-05
C11G A42U G59U | < 1e-05 | < 1e-05 | –
C8U G13C A14C | < 1e-05 | < 1e-05 | –
C10U A15U G35A C61G | < 1e-05 | < 1e-05 | –
G9C C11G | < 1e-05 | < 1e-05 | < 1e-05
C8A A12C A33U A64G | < 1e-05 | < 1e-05 | –
C11G G60U A64U | < 1e-05 | < 1e-05 | –
G9A U57A | < 1e-05 | < 1e-05 | –
C8G A12U A36C | < 1e-05 | – | –
C8U G63U C68U | < 1e-05 | – | –
G9A G44U A52G U65G | < 1e-05 | < 1e-05 | –
C11U C61G C67A | 0.000183 ± 5.6e-05 | 0.000446 ± 0.00017 | –
C10A U30C G37U | < 1e-05 | – | –
G7U G40C U49A | < 1e-05 | – | –
C8G A15U U56C | < 1e-05 | < 1e-05 | < 1e-05
C8G G35A G44C | < 1e-05 | – | < 1e-05
G7U C10U A52U | < 1e-05 | – | –
G7U G38A G44U | < 1e-05 | – | –
C11U G13A G44U | < 1e-05 | < 1e-05 | –
C10U C16A A52U | < 1e-05 | – | –

Variant | self-cleavage kobs at 640 uM GlcN6P [1] [s⁻¹] | self-cleavage kobs at 2500 uM GlcN6P [2] [s⁻¹] | self-cleavage kobs at 10000 uM GlcN6P [3] [s⁻¹]
C8G G38U G41A U46G G59A | < 1e-05 | < 1e-05 | –
C8A U69A | 0.00169 ± 0.00074 | – | –
C10G U30C C68G | 9.65e-05 ± 3.5e-05 | – | –
C10G A15C A36U | < 1e-05 | – | –
G9U A36C A39G C70U | < 1e-05 | – | –
G7U C8A C10U U46C A52U | < 1e-05 | – | –
C8A G13A G37U G59C C68G | 0.000781 ± 0.00025 | – | –
C8G C11U G32U G59U | < 1e-05 | < 1e-05 | –
C10U G32A G59A G60A | < 1e-05 | – | –
G9C A53C C70U | < 1e-05 | < 1e-05 | –
C8U G35C C68U | < 1e-05 | – | –
C10A U47A C70G | 0.000288 ± 0.00012 | – | –
C10U U31C U49C | < 1e-05 | – | –
G7U C10U G43U | < 1e-05 | – | –
G7U U31C C50G | 0.000324 ± 0.00016 | – | –
C10A C16A A36C A42G U46A U54C U56G G63U | < 1e-05 | – | < 1e-05
C8U C34U A42U U65A C67G | 0.000104 ± 4.1e-05 | 5.58e-05 ± 2.1e-05 | –
G7U G35U C58U C70A C71U | < 1e-05 | – | –
G9A G38A A42G U69G C70U C71A | < 1e-05 | – | –
G9A G44C A53G U57A | < 1e-05 | < 1e-05 | < 1e-05
C10A U56A C70U | 6.36e-05 ± 2.6e-05 | 0.000147 ± 6.5e-05 | –
C10G G60U G63U | < 1e-05 | – | –

Variant | self-cleavage kobs at 640 uM GlcN6P [1] [s⁻¹] | self-cleavage kobs at 2500 uM GlcN6P [2] [s⁻¹] | self-cleavage kobs at 10000 uM GlcN6P [3] [s⁻¹]
C11U G35C U46A U69G | < 1e-05 | < 1e-05 | –
C11U C16U C71G | 6.83e-05 ± 1.8e-05 | 0.000127 ± 3.7e-05 | –
C8G C10A G41A | < 1e-05 | < 1e-05 | –
C8U C19A G35A A36U G51U | < 1e-05 | – | –
C8U C10U C11U G51C | < 1e-05 | – | –
C8U G9C C50A G51U G60U | < 1e-05 | – | –
C8A G35A G59A C70U | < 1e-05 | < 1e-05 | –
G9C G38U U45C | < 1e-05 | – | –
G9C A12C C19A G51U U54G G63C C70G | < 1e-05 | < 1e-05 | –
G9C A15C A53U | < 1e-05 | – | –
C8U C16U C71A | < 1e-05 | – | –
C11A C50G U57G | 8.51e-05 ± 3e-05 | 7.4e-05 ± 2.5e-05 | –
G9U A12C | < 1e-05 | – | < 1e-05
G9A C68A U69C | < 1e-05 | – | –
C10U A52C C58G | < 1e-05 | < 1e-05 | –
G9C C50G G60C C70A | 0.000151 ± 4.9e-05 | 0.000123 ± 3.7e-05 | –
C8G A15G C16U U45G U49A | < 1e-05 | < 1e-05 | –
C10A A12C G43A C67U C70G | < 1e-05 | < 1e-05 | –
C11G A15C G32U A33C C50U C71A | 0.000149 ± 4e-05 | – | –
G7U U46A C68U | < 1e-05 | < 1e-05 | –
C10U A14U C16U C68G | 0.00169 ± 0.00051 | 0.000319 ± 0.00011 | –
C10U G63C U65G C70A C71A | 0.000118 ± 4.2e-05 | – | < 1e-05

Variant | self-cleavage kobs at 640 uM GlcN6P [1] [s⁻¹] | self-cleavage kobs at 2500 uM GlcN6P [2] [s⁻¹] | self-cleavage kobs at 10000 uM GlcN6P [3] [s⁻¹]
C10G C11G G32C G59C C67G | < 1e-05 | – | –
C8G G32A U46C A53U G63C | < 1e-05 | < 1e-05 | –
C8G G9C A39C | < 1e-05 | < 1e-05 | –
C8G G32U G44C | < 1e-05 | – | –
C8G A36U C70U | < 1e-05 | – | –
C8G G29C A42G G51C C58G G59A | < 1e-05 | – | –
C10U A39U G62A | < 1e-05 | – | –
C8U C50A | < 1e-05 | < 1e-05 | < 1e-05
C10U C16U A39U G60U C67G U69G | < 1e-05 | < 1e-05 | –
C11U G38C G51U U65A | < 1e-05 | – | –
C11U A12C C70G | 0.000165 ± 6.8e-05 | – | –
C8U U30G U55C | < 1e-05 | < 1e-05 | –
G9A A42G A52G | < 1e-05 | – | –
C10U C16U G32A C50G | 0.000327 ± 0.00015 | 9.98e-05 ± 3.8e-05 | –
G9C C50U U55G | < 1e-05 | < 1e-05 | –
C11A A14G G41U G51C | < 1e-05 | < 1e-05 | –
C10G G38A C58G A64C | 0.000102 ± 4.5e-05 | – | –
G9U G32C A33G A39G A48U C61U G63U A64U | < 1e-05 | < 1e-05 | –
C8U G13A G66U | < 1e-05 | < 1e-05 | –
C8A G9A G13U | < 1e-05 | – | –
C8A G43C C61A | < 1e-05 | – | –
C10U G37C G60A | < 1e-05 | – | –
